Measured values from article doi:10.1101/2021.02.16.431378.
Several values for one entry are separate records, joined by “and”; a condition that tells them apart may be missing. Identical values can stand only once. Each block holds one molecule with its values, some of them ahead of it.

Tests used:
[1] = molecular target: N-terminally 6xHis tagged HU-A (histidine-tagged E. coli HU-A) (E. coli K-12 sub-strain MG1655) (UniProt P0ACF0); experiment: SEC
[2] = molecular target: N-terminally 6xHis tagged HU-A (histidine-tagged E. coli HU-A) (E. coli K-12 sub-strain MG1655) (UniProt P0ACF0); experiment: cross-linking
[3] = molecular target: N-terminally 6xHis tagged HU-A (histidine-tagged E. coli HU-A) (E. coli K-12 sub-strain MG1655) (UniProt P0ACF0); experiment: SEC; remark: listed apart in the source
[4] = molecular target: N-terminally 6xHis tagged HU-B (histidine-tagged E. coli HU-B) (E. coli K-12 sub-strain MG1655) (UniProt P0ACF4); experiment: cross-linking
[5] = molecular target: N-terminally 6xHis tagged HU-B (histidine-tagged E. coli HU-B) (E. coli K-12 sub-strain MG1655) (UniProt P0ACF4); experiment: SEC
[6] = molecular target: N-terminally 6xHis tagged HU-B (histidine-tagged E. coli HU-B) (E. coli K-12 sub-strain MG1655) (UniProt P0ACF4); experiment: cross-linking; remark: listed apart in the source
[7] = molecular target: N-terminally 6xHis tagged HU-B (histidine-tagged E. coli HU-B) (E. coli K-12 sub-strain MG1655) (UniProt P0ACF4); experiment: cross-linking; remark: listed apart in the source
[8] = molecular target: N-terminally 6xHis tagged HU-B (histidine-tagged E. coli HU-B) (E. coli K-12 sub-strain MG1655) (UniProt P0ACF4); experiment: SEC; remark: listed apart in the source
[9] = molecular target: N-terminally 6xHis-tagged HU-B co-expressed from pET-Duet-1 (E. coli K-12 sub-strain MG1655) (UniProt P0ACF4); experiment: SEC
[10] = molecular target: N-terminally 6xHis-tagged HU-B co-expressed from pET-Duet-1 (E. coli K-12 sub-strain MG1655) (UniProt P0ACF4); experiment: pull-down
6xHis-HU-B = molecular target: T1, 6xHis-HU-B (Escherichia coli K-12 MG1655, UniProt P0ACF4 1-90); experiment: EMSA
T1 sequence: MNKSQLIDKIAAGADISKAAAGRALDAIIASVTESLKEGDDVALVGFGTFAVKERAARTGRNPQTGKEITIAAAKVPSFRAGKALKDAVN

6xHis-HU-A = 6xHis-HU-A (Escherichia coli K-12 MG1655, UniProt P0ACF0 1-90); experiment: EMSA
[11] = molecular target: T2, TmRITC-labelled histidine-tagged HU-B, P0ACF4; experiment: FRET or BRET
T2 chain: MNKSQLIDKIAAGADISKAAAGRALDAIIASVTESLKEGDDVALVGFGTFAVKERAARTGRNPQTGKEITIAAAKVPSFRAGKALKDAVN

- stoichiometry N [1]: 2
- stoichiometry N [2]: 2
- stoichiometry N [3]: 2
Molecule: N-terminally 6xHis tagged HU-A (histidine-tagged E. coli HU-A) (from UniProt P0ACF0 1-90) (natural protein)

- stoichiometry N [4]: 2 and 4
- stoichiometry N [5]: 2
- stoichiometry N [6]: 2 and 4
- stoichiometry N [7]: 2 and 4
- stoichiometry N [8]: 2
Molecule: N-terminally 6xHis tagged HU-B (histidine-tagged E. coli HU-B) (from UniProt P0ACF4 1-90) (natural protein)

- stoichiometry N [9]: 2
Molecule: N-terminally 6xHis-tagged HU-B co-expressed from pET-Duet-1 (from UniProt P0ACF4 1-90) (natural protein)

- heterodimer as percent of the total overexpressed HU population [10]: < 5%
- percent of the total protein purified [10]: < 10%
- heterodimer as percent of the total overexpressed HU population [9]: < 5%
Molecule: Tag-RFP fused to HU-A without a 6xHis tag (RFP-HU-A) (from UniProt P0ACF0 1-90) (natural protein)

B1: 4WJ-DNA (Holliday junction) (structured_DNA)
DNA 1: CCCTATAACCCCTGCATTGAATTCCTGTCTGATAA
DNA 2: GTAGTCGTGATAGGTGCAGGGGTTATAGGG
DNA 3: AACAGTAGCTCTTAATTCGAGCTCGCGCCCTATCACGACTA
DNA 4: TTTATCAGACTGGAATTCAAGCGCGAGCTCGAATAAGAGCTACTGT
- binding result (6xHis-HU-B): binds
- binding result (6xHis-HU-A): binds

B2: FITC-labelled histidine-tagged HU-A (protein)
chain: MNKTQLIDVIAEKAELSKTQAKAALESTLAAITESLKEGDAVQLVGFGTFKVNHRAERTGRNPQTGKEIKIAAANVPAFVSGKALKDAVK
- percent heterodimers formed after mixing [11]: less than 5%
